Drawing on paper PMC7145699, “Structural insights into target DNA recognition by R2R3-MYB transcription factors”, this text covers Kd, binding result and binding signal for eleven molecules.

In general, Kd refers to the free concentration of one partner at which half of the binding sites on the other are occupied at equilibrium, for simple one-to-one binding.

Data set [1] concerns the target T1, WER 12-130 (WER-R2R3) (Arabidopsis, UniProt Q9SEI0 12-130).
T1 sequence: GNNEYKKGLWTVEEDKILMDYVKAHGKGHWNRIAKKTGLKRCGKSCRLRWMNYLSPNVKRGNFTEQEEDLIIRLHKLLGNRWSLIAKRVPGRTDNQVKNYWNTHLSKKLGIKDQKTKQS
Nature of the data set: ITC; ITC: 150 mM NaCl, 20 mM HEPES pH 7.5, 25 C, 400 uM protein into 20 uM DNA; EMSA: 150 mM NaCl, 20 mM Tris-HCl pH 8.0, on ice 1 h, 0.1 uM DNA, 6% native PAGE 0.5x TBE. To be noted: protein: recombinant; tags: 6xHis-SUMO removed by Ulp1; blunt. (In general: ITC needs no label: the signal is the heat of the interaction.)

In data set [2] the target is T1, WER 12-130 (WER-R2R3). The data set is described as above. The conditions noted are these: protein: recombinant; tags: 6xHis-SUMO removed by Ulp1; blunt. This is another data set of the same source.
For data set [3], the target named is T1, WER 12-130 (WER-R2R3). The data set can be described thus: crystal structure (2.15 A); ITC: 150 mM NaCl, 20 mM HEPES pH 7.5, 25 C, 400 uM protein into 20 uM DNA; EMSA: 150 mM NaCl, 20 mM Tris-HCl pH 8.0, on ice 1 h, 0.1 uM DNA, 6% native PAGE 0.5x TBE. The conditions noted are these: protein: recombinant; tags: 6xHis-SUMO removed by Ulp1; 5' overhang 1 nt at both ends.

Data set [4] has as its target T1, WER 12-130 (WER-R2R3). The data set can be described thus: ITC; ITC: 150 mM NaCl, 20 mM HEPES pH 7.5, 25 C, 400 uM protein into 20 uM DNA; EMSA: 150 mM NaCl, 20 mM Tris-HCl pH 8.0, on ice 1 h, 0.1 uM DNA, 6% native PAGE 0.5x TBE. To be noted: protein: recombinant; tags: 6xHis-SUMO removed by Ulp1; blunt. The source holds these as a separate data set.

B1: GL2 promoter WER target DNA (dsDNA)
DNA 1: AAATTCTCCAACCGCATTTTC
DNA 2: GAAAATGCGGTTGGAGAATTT
Consider B1, for which the equilibrium dissociation constant (Kd) in data set [1] is about 51 nM.

B2: A14:T9* (dsDNA)
DNA 1: AAATTCTCCAACCACATTTTC
DNA 2: GAAAATGTGGTTGGAGAATTT
As for B2, the binding result in data set [1] is “binds”.

B3: 6mA11 DNA (A6mAC) (dsDNA)
DNA 1: AAATTCTCCAACCGCATTTTC
DNA 2: GAAAATGCGGTTGGAGAATTT
modifications: 6mA at A11 of strand 1
In the case of B3, the binding signal in data set [2] is 5 fold decrease in affinity vs N1.

B4: crystal DNA (dsDNA)
DNA 1: AAATTCTCCAACCGCATTTTC
DNA 2: CGAAAATGCGGTTGGAGAATT
Turning to B4, in data set [3], the binding result was “binds”.

B5: A12:T11* (dsDNA)
DNA 1: AAATTCTCCAAACGCATTTTC
DNA 2: GAAAATGCGTTTGGAGAATTT
As to B5, the dissociation constant (Kd) in data set [1] was 2590 nM.

B6: C10:G13* (dsDNA)
DNA 1: AAATTCTCCCACCGCATTTTC
DNA 2: GAAAATGCGGTGGGAGAATTT
With B6, the Kd in data set [1] was determined as 2000 nM.

B7: T14:A9* (dsDNA)
DNA 1: AAATTCTCCAACCTCATTTTC
DNA 2: GAAAATGAGGTTGGAGAATTT
Consider B7, for which the binding result in data set [1] was “binds”.

B8: 6mA10,6mA11 DNA (6mA6mAC) (dsDNA)
DNA 1: AAATTCTCCAACCGCATTTTC
DNA 2: GAAAATGCGGTTGGAGAATTT
modifications: 6mA at A10 and A11 of strand 1
On to B8, for which, in data set [2], the binding signal was > 20 fold decrease in affinity vs N1.

B9: C14:G9* (dsDNA)
DNA 1: AAATTCTCCAACCCCATTTTC
DNA 2: GAAAATGGGGTTGGAGAATTT
On to B9, for which, in data set [4], the binding signal was 40 fold decrease in affinity vs N1.

B10: 5mC12 DNA (AA5mC) (dsDNA)
DNA 1: AAATTCTCCAACCGCATTTTC
DNA 2: GAAAATGCGGTTGGAGAATTT
modifications: 5mC at C12 of strand 1
B10: in data set [1], the dissociation constant (Kd) was 2340 nM.

B11: 6mA10 DNA (6mAAC) (dsDNA)
DNA 1: AAATTCTCCAACCGCATTTTC
DNA 2: GAAAATGCGGTTGGAGAATTT
modifications: 6mA at A10 of strand 1
For B11, the binding signal in data set [2] was 12 fold decrease in affinity vs N1.
